Data on 4 molecules can be found in patent US20260226143A1 (OTHAIR PROTHENA, published 2026).

In general, EC50 refers to the midpoint of the concentration-response curve. What is called IC50 is the concentration that inhibits the measured activity by half.

One test deals with soluble Aβ oligomers (human, partly biotinylated (unlabeled, biotinylated or 9:1 unlabeled:biotinylated preparations)). Kind of test: cell-based or functional assay.
Test [1] addresses T1, recombinant Aβ1-42 fibrils (human).
T1 construct: Fibrils made from HFIP-treated Aβ1-42 (DMSO, 10 mM HCl, 37 C, 24 h; pellet resuspended and sonicated); also called fibril Aβ42; fibril Aβ
In words: direct ELISA on plate-coated Aβ fibrils, antibody titrated. How it is done: (§1) Plates were blocked 1% BSA/PBS for 1 hour. […] Plates were washed four times with TBS/Tween 20 and 100 μl of goat anti Human IgG HRP (Jackson ImmunnoResearch Laboratories, Inc, West Grove, PA or Invitrogen, Carlsbad, CA) at 1/5000 dilution was added to each well and incubated 1 hour at room temperature. Plates were wash six times in TBS/Tween 20, and Thermo Fisher o-phenylenediamine dihydrochloride (OPD) tablets and ThermoFisher substrate buffer were prepared per manufacturer's instructions. 100 μl of substrate was added and incubated 15 min. Reaction was stopped with 50 μl H₂SO₄. Plates were read at 490 nm on a molecular devices spectromax. FIG. 9A, and FIG. 21. For FIG. 21, curves and resulting EC₅₀ estimations represent nonlinear three-parameter least squares fit of the data (data shown in Table 7).
Background: In an ELISA, binding on a coated surface is turned into a signal by an enzyme label.

Test [2] concerns the target T2, aggregated Aβ42 (heterogeneous Aβ 42 aggregate mixture) (human).
T2 construct: Aβ 42 vortexed in water and kept on a nutator for 48 h at room temperature, then coated on plates; also called Aβ aggregates; heterogeneous aggregated Aβ42 species
In words: competition ELISA, plate coated with aggregated Aβ42; competitor biotinylated hBP. How it is done:
One mg of Aβ 42 was added to 1 ml of diH2O and was vigorously vortexed and placed on a nutator for 48 hours at room temperature. Plates were coated with 0.5 mg/ml of the heterogeneous Aβ 42 aggregate mixture and blocked, e.g., with 1% BSA/PBS. […] 100 ul of GE Streptavidin HRP diluted 1/10,000 was then added and incubated for 30 minutes. Plates were washed six times with TTBS. Thermo Fisher o-phenylenediamine dihydrochloride (OPD) substrate was prepared fresh per manufacturers direction, and 100 μl per well was added. The reaction was incubated for 15 minutes and the reaction stopped with 50 ul 2N H₂SO₄. […] For FIG. 20A and FIG. 20B, curves and resulting IC₅₀ estimations represent nonlinear three-parameter least squares fit of data. Individual points are the average of triplicate samples (coefficient of variation <20%).

Test [3] deals with T1, recombinant Aβ1-42 fibrils. Kind of test: direct ELISA on plate-coated Aβ fibrils; the low end falls to h2831 by the EC50 values of Table 7. How it is done: as §1
Test [4] deals with T1, recombinant Aβ1-42 fibrils. In words: direct ELISA, fibril Abeta plate coat titrated, antibody held constant at 2 ug/ml; unit from the axis 'log ng/ml Abeta' [right panel]. How it is done: Plates were blocked 1% BSA/PBS 1 hour. Antibodies at 2 μg/ml in 0.1% BSA/PBS 0.1% Tween 20 were added in duplicate to the appropriate wells and incubated for 2 hrs at room temperature. Plates were washed 4× with TBS/Tween 20 and then 100 μl of Jackson Goat anti Human IgG HRP 1/5000 dilution was added to each well and incubated 1 hour at room temperature. Plates were wash six times in TBS/Tween 20, and Thermo Fisher o-phenylenediamine dihydrochloride (OPD) tablets and Thermofisher substrate buffer were prepared per manufacturer's instructions. 100 μl of substrate was and incubated 15 min. Reaction was stopped with 50 μl H₂SO₄. Plates were read at 490 nm on a molecular devices spectromax. FIG. 9B, right panel.

Test [5] concerns the target T1, recombinant Aβ1-42 fibrils. Kind of test: direct ELISA on plate-coated Aβ fibrils; the high end falls to h2726 by the EC50 values of Table 7. How it is done: as §1

Positions count from the first letter of the chain named.

soluble Aβ oligomers (human, partly biotinylated (unlabeled, biotinylated or 9:1 unlabeled:biotinylated preparations)), sequence (peptide, as listed by the source): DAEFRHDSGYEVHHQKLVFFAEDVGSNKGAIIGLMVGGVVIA
T1 sequence (peptide, as listed by the source): as above
T2 sequence (peptide, as listed by the source): as above

B1: h2731 (antibody, human IgG1, kappa, V domains shown)
VH: EVQLLESGGGLVQPGGSLRLSCAASGFTFSNYGMSWVRQAPGKGLEWVASIRSGSGRTYYSDNVKGRFTISRDNSKNTLYLQMNSLRAEDTAVYYCVRYDHYSGSSDYWGQGTLVTVSS
VL: DVVMTQSPLSLPVTLGEPASISCKSSQSLLDYDGKTYLNWLLQKPGQSPQRLIYRVTNRDTGVPDRFSGSGSGTDFTLKISRVEAEDVGVYYCWQGTHFPRSFGQGTKVEIKR
notes: Heavy chain with or without the C-terminal lysine
In the case of B1, the “IC50 of the reduction of Abeta spots per neuron (% Abeta control, normalized to untreated Abeta)” value in the test with soluble Aβ oligomers turned out to be 0.47 µg/mL. The EC50 in test [1] was found to be 0.0367 µg/mL. Also, the IC50 in test [2] was 5.02 µg/mL.

B2: h2831 (antibody, V domains shown)
VH: B1 VH with Y32F, I51V, S105T
VL: DVVMTQSPLSLPVTLGEPASISCKSSQSLLDYDGKTYLNWLLQKPGQSPQRLIYRVTNRDTGVPDRFSGSGSGTDFTLKISRVEAEDVGVYYCWQGTHFPRSFGQGTKVEIK
notes: Humanized IgG; only variable domains tied to the name; also called PB-0575
Consider B2, for which, in the test with soluble Aβ oligomers, the “IC50 of the reduction of Abeta spots per neuron (% Abeta control, normalized to untreated Abeta)” value came to 0.924 µg/mL and the “Total Area (area under the curve of % Abeta control against mAb concentration)” value amounted to 6500. Further, the 50% effective concentration (EC50) in test [1] was 0.0489 µg/mL. Further, the IC50 in test [2] came to 9.91 µg/mL. In test [3], the “fold lower estimated EC50 than aducanumab” value is 15 to 20 fold. Besides, in test [4], the “IC50 (as headed in the table; half-maximal concentration of the Abeta fibril coat)” value is 0.412 µg/mL.

B3: h2726 (antibody, V domains shown)
VH: B1 VH
VL: B2 VL with L15P, R55K, T57S, T61S, S102T
notes: Humanized IgG; also called PB-0573
As to B3, in the test with soluble Aβ oligomers, the “IC50 of the reduction of Abeta spots per neuron (% Abeta control, normalized to untreated Abeta)” value was 1.67 µg/mL and the “Total Area (area under the curve of % Abeta control against mAb concentration)” value worked out at 9070. In addition, in test [1], the EC50 came out at 0.0359 µg/mL. The IC50 in test [2] was 9.05 µg/mL. In test [5], the “fold lower estimated EC50 than aducanumab” value is 15 to 20 fold. Also, the “IC50 (as headed in the table; half-maximal concentration of the Abeta fibril coat)” value in test [4] turned out to be 0.387 µg/mL.

B4: h2931 (antibody, V domains shown)
VH: B1 VH with Y32F, I51V, S103T, S105T
VL: B2 VL
notes: Humanized IgG; only variable domains tied to the name; also called PB-0576
Turning to B4, in the test with soluble Aβ oligomers, the “IC50 of the reduction of Abeta spots per neuron (% Abeta control, normalized to untreated Abeta)” value came to 0.627 µg/mL and the “Total Area (area under the curve of % Abeta control against mAb concentration)” value was found to be 8480. Besides, the concentration for a half-maximal effect (EC50) in test [1] was 0.0449 µg/mL. For the same molecule, the half-maximal inhibitory concentration (IC50) in test [2] stood at 6.9 µg/mL. Besides, the “IC50 (as headed in the table; half-maximal concentration of the Abeta fibril coat)” value in test [4] is 0.335 µg/mL.
